The values below come from article PMC8187593 (2021).

In the experiment the target is T1, cathepsin K mature active enzyme (Homo sapiens, UniProt P43235).
T1 chain: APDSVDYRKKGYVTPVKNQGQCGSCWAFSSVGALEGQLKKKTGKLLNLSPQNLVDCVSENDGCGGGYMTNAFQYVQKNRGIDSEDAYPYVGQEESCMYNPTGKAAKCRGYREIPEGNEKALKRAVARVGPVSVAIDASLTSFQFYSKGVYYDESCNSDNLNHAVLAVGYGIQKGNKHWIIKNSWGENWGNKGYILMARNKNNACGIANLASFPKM
As to the kind of experiment: SPR. For orientation: In SPR one partner is held on a chip, and binding of the other changes the refractive index at the surface.

For orientation: Kd means a measure of binding affinity in units of concentration.

B1: vitronectin (pVN) (protein)
chain: DQESCKGRCTDGFIAERKCQCDELCSYYQSCCTDYVAECKPQVTRGDVFLQPDDEYRAYDYHEETRHNTSVQEEQRIPVLLAKTEETPVLKPEEEAPPPGPQTDDLGVPEEELCSGKPFDAFTNLKNGSVFAFRGLYCYELDEKAVRPGYPKLIQDVWGIKGPIDAAFTRINCQGKTYLFKGSQYWRFDDGVLDPNYPREISEGFKGIPDDVDAALALPAHSYSGRERVYFFKGKQYWEYVFQQQPSREECEGSSPSDVFAHFALMQRDSWEDIFRLLFWSHSFGGAIEPRVISQDWLGLPEQVDAAMAGQIYISGSALKPSQPKMTKSARRSGKRYRSRRGRGRGRGHSRSQKSHRQSRSTWLPWFSSEETGPGGYNYDDYKMDWLVPATCEPIQSVYFFSGEEYYRVNLRTQRVDTVTPPYPRSIAQYWLGCPVPDQK
The molecule B1 registered a Kd of 4.2 nM.

B2: vitronectin (hVN) (protein)
chain: DQESCKGRCTEGFNVDKKCQCDELCSYYQSCCTDYTAECKPQVTRGDVFTMPEDEYTVYDDGEEKNNATVHEQVGGPSLTSDLQAQSKGNPEQTPVLKPEEEAPAPEVGASKPEGIDSRPETLHPGRPQPPAEEELCSGKPFDAFTDLKNGSLFAFRGQYCYELDEKAVRPGYPKLIRDVWGIEGPIDAAFTRINCQGKTYLFKGSQYWRFEDGVLDPDYPRNISDGFDGIPDNVDAALALPAHSYSGRERVYFFKGKQYWEYQFQHQPSQEECEGSSLSAVFEHFAMMQRDSWEDIFELLFWGRTSAGTRQPQFISRDWHGVPGQVDAAMAGRIYISGMAPRPSLAKKQRFRHRNRKGYRSQRGHSRGRNQNSRRPSRATWLSLFSSEESNLGANNYDDYRMDWLVPATCEPIQSVFFFSGDKYYRVNLRTRRVDTVDPPYPRSIAQYWLGCPAPGHL
With B2, the equilibrium dissociation constant (Kd) amounted to 1.99 nM.
